Laboratory results reported in patent US20240368565A1 (PROMEGA, published 2024).
Positions count from the first letter of the chain named. Numbers in names are those of the source. Where “and” joins values, the source holds several entries; their conditions need not be identical. Equal values may be shown once. Ends that are not written are not given here. * marks the point of attachment. Biotin = O=C1N[C@H]2[C@H](CS[C@H]2CCCCC(=O)*)N1

What was measured:
[1] = target: FKBP-SmHT-HiBiT; experiment: cell-based or functional assay
[2] = target: T1, Biotin-HaloTag[3-19] (I2R)-4xGly/Ser-VS-HiBiT (N-terminal biotin); experiment: BLI; biotin-peptide on streptavidin probe; PBST, 25 C
T1 construct: Synthetic peptide; also called HaloTag[3-19](12R)-4×Gly/Ser-VS-HiBiT; DualTag peptide
T1 peptide: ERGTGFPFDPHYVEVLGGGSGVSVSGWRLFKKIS

[3] = target: T2, Biotin-HaloTag[3-19] (I2R + D9R)-4xGly/Ser-VS-HiBiT (N-terminal biotin); experiment: as above
T2 construct: Synthetic peptide; also called HaloTag[3-19](I2R + D9R)-4xGS-VSHiBiT
T2 peptide: T1 peptide with D9R

[4] = target: T3, Biotin-HaloTag[3-19] (E14K)-4xGly/Ser-VS-HiBIT (N-terminal biotin); experiment: as above
T3 construct: Synthetic peptide
T3 peptide: T1 peptide with R2I, E14K

[5] = target: T4, Biotin-HaloTag[3-19] (D9R + E14K)-4xGly/Ser-VS-HiBiT (N-terminal biotin); experiment: as above
T4 construct: Synthetic peptide; also called HaloTag[3-19](D9R + E14K)-4xGS-VSHiBiT
T4 peptide: T1 peptide with R2I, D9R, E14K

[6] = target: T5, Biotin-HaloTag[3-19] (I2R + G3K)-4xGly/Ser-VS-HiBiT (N-terminal biotin); experiment: as above
T5 construct: Synthetic peptide; also called HaloTag[3-19](I2R + G3K)-4xGS-VSHiBIT
T5 peptide: T1 peptide with G3K

[7] = target: T6, Biotin-HaloTag[3-19] (D9R)-4xGly/Ser-VS-HiBiT (N-terminal biotin); experiment: as above
T6 construct: Synthetic peptide
T6 peptide: T1 peptide with R2I, D9R

[8] = target: T7, Biotin-HaloTag[3-19] (D9R + L16R)-4xGly/Ser-VS-HiBiT (N-terminal biotin); experiment: as above
T7 construct: Synthetic peptide; also called HaloTag[3-19](D9R + L16R)-4xGS-VSHiBiT
T7 peptide: T1 peptide with R2I, D9R, L16R

[9] = target: T8, Biotin-HaloTag[3-19] (I2R + G5R)-4xGly/Ser-VS-HiBiT (N-terminal biotin); experiment: as above
T8 construct: Synthetic peptide; also called HaloTag[3-19](I2R + G5R)-4xGS-VSHiBiT
T8 peptide: T1 peptide with G5R

[10] = target: T9, Biotin-HaloTag[3-19] (G3K + L16R)-4xGly/Ser-VS-HiBiT (N-terminal biotin); experiment: as above
T9 construct: Synthetic peptide; also called HaloTag[3-19](G3K + L16R)-4xGS-VSHiBiT
T9 peptide: T1 peptide with R2I, G3K, L16R

[11] = target: T10, Biotin-HaloTag[3-19] (G5R)-4xGly/Ser-VS-HiBiT (N-terminal biotin); experiment: as above
T10 construct: Synthetic peptide
T10 peptide: T1 peptide with R2I, G5R

[12] = target: T11, Biotin-HaloTag[3-19] (G3K + E14K)-4xGly/Ser-VS-HiBiT (N-terminal biotin); experiment: as above
T11 construct: Synthetic peptide; also called HaloTag[3-19](G3K + E14K)-4xGS-VSHiBiT
T11 peptide: T1 peptide with R2I, G3K, E14K

[13] = target: T12, Biotin-HaloTag[3-19] (L16R)-4xGly/Ser-VS-HiBiT (N-terminal biotin); experiment: as above
T12 construct: Synthetic peptide
T12 peptide: T1 peptide with R2I, L16R

[14] = target: T13, Biotin-HaloTag[3-19] (I2R + G17R)-4xGly/Ser-VS-HiBiT (N-terminal biotin); experiment: as above
T13 construct: Synthetic peptide; also called HaloTag[3-19](I2R + G17R)-4xGS-VSHiBiT
T13 peptide: T1 peptide with G17R

[15] = target: T14, Biotin-HaloTag[3-19] (G3K)-4xGly/Ser-VS-HiBIT (N-terminal biotin); experiment: as above
T14 construct: Synthetic peptide
T14 peptide: T1 peptide with R2I, G3K

[16] = target: T15, Biotin-VS-HiBiT-5xGly/Ser-HaloTag[3-19] (I2R) (N-terminal biotin (on Val1), used for immobilisation on streptavidin probes; not carried by the letters); experiment: as above
T15 construct: Synthetic peptide
T15 peptide: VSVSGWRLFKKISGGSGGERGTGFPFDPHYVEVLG

[17] = target: T16, Biotin-HaloTag[3-19] (I2R)-4xGly/Ser-HiBiT (N-terminal biotin (on Glu1), used for immobilisation on streptavidin probes; not carried by the letters); experiment: as above
T16 construct: Synthetic peptide
T16 peptide: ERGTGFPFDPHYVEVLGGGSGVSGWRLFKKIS

[18] = target: T17, VS-HiBiT-HaloTag[3-19] (I2R) (not fully specified; N-terminal biotin (on Val1) per the head of Table 1 ('All peptides are biotinylated at the N-terminus'), though Table 2 does not print Biotin for this entry; not carried by the …); experiment: as above
T17 construct: Synthetic peptide

[19] = target: T18, Biotin-HaloTag[3-19] (I2R)-VS-HiBiT (N-terminal biotin (on Glu1), used for immobilisation on streptavidin probes; not carried by the letters); experiment: as above
T18 construct: Synthetic peptide
T18 peptide: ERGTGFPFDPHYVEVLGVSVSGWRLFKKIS

[20] = target: T19, Biotin-HaloTag[3-19] (I2R)-4xGly/Ser-VS-HiBiT (K8R + K9R) (N-terminal biotin (on Glu1), used for immobilisation on streptavidin probes; not carried by the letters); experiment: as above
T19 construct: Synthetic peptide
T19 peptide: T1 peptide with K31R, K32R

[21] = target: T20, Biotin-VS-HiBiT; experiment: as above
T20 construct: Synthetic peptide
T20 peptide: Biotin-VSVSGWRLFKKIS

B1: HaloTag[22-297](M2F)-12xGly/Ser-LgBiT (other)
chain: MFHYVDVGPRDGTPVLFLHGNPTSSYVWRNIIPHVAPTHRCIAPDLIGMGKSDKPDLGYFFDDHVRFMDAFIEALGLEEVVLVIHDWGSALGFHWAKRNPERVKGIAFMEFIRPIPTWDEWPEFARETFQAFRTTDVGRKLIIDQNVFIEGTLPMGVVRPLTEVEMDHYREPFLNPVDREPLWRFPNELPIAGEPANIVALVEEYMDWLHQSPVPKLLFWGTPGVLIPPAEAARLAKSLPNCKAVDIGPGLNLLQEDNPDLIGSEIARWLSTLEISGGSGGSGGGGSGGMVFTLEDFVGDWEQTAAYNLDQVLEQGGVSSLLQNLAVSVTPIQRIVRSGENALKIDIHVIIPYEGLSADQMAQIEEVFKVVYPVDDHHFKVILPYGTLVIDGVTPNMLNYFGRPYEGIAVFDGKKITVTGTLWNGNKIIDERLITPDGSMLFRVTINS
luminescence (FIG. 9) [1]: ~100 fold

B2: HaloTag[22-297](Q145H+P154R)-LgBiT (other)
chain: MMHYVDVGPRDGTPVLFLHGNPTSSYVWRNIIPHVAPTHRCIAPDLIGMGKSDKPDLGYFFDDHVRFMDAFIEALGLEEVVLVIHDWGSALGFHWAKRNPERVKGIAFMEFIRPIPTWDEWPEFARETFQAFRTTDVGRKLIIDHNVFIEGTLRMGVVRPLTEVEMDHYREPFLNPVDREPLWRFPNELPIAGEPANIVALVEEYMDWLHQSPVPKLLFWGTPGVLIPPAEAARLAKSLPNCKAVDIGPGLNLLQEDNPDLIGSEIARWLSTLEISGGSGGSGGGGSGGMVFTLEDFVGDWEQTAAYNLDQVLEQGGVSSLLQNLAVSVTPIQRIVRSGENALKIDIHVIIPYEGLSADQMAQIEEVFKVVYPVDDHHFKVILPYGTLVIDGVTPNMLNYFGRPYEGIAVFDGKKITVTGTLWNGNKIIDERLITPDGSMLFRVTINSGSGHHHHHH
luminescence (FIG. 9) [1]: ~100 fold

B3: HaloTag[22-297](M2F + K140E)-12xGly/Ser-LgBiT-3xGly/Ser-6xHis (other)
chain: B2 chain with M2F, K140E, H145Q, R154P
notes: Purified tandem polypeptide reporter variant
Kd [2]: 0.684 nM and 0.466 nM
koff [2]: 4.56e-05 s⁻¹ and 3.26e-05 s⁻¹
kon [2]: 66700 M⁻¹ s⁻¹ and 70000 M⁻¹ s⁻¹
kon [3]: 128000 M⁻¹ s⁻¹
kon [4]: 108000 M⁻¹ s⁻¹
Kd [5]: 0.111 nM
koff [5]: 1.69e-05 s⁻¹
kon [5]: 152000 M⁻¹ s⁻¹
kon [6]: 104000 M⁻¹ s⁻¹
Kd [7]: 0.126 nM
koff [7]: 1.09e-05 s⁻¹
kon [7]: 86600 M⁻¹ s⁻¹
kon [8]: 134000 M⁻¹ s⁻¹
kon [9]: 95100 M⁻¹ s⁻¹
kon [10]: 97100 M⁻¹ s⁻¹
kon [11]: 85300 M⁻¹ s⁻¹
kon [12]: 128000 M⁻¹ s⁻¹
kon [13]: 77900 M⁻¹ s⁻¹
kon [14]: 93300 M⁻¹ s⁻¹
Kd [15]: 0.264 nM
koff [15]: 1.93e-05 s⁻¹
kon [15]: 73000 M⁻¹ s⁻¹

B4: HaloTag[22-297](M2F + D53G + K140E)-12xGly/Ser-LgBiT-3xGly/Ser-6xHis (other)
chain: B2 chain with M2F, D53G, K140E, H145Q, R154P
Kd [2]: 0.576 nM
koff [2]: 4.82e-05 s⁻¹
kon [2]: 83800 M⁻¹ s⁻¹
Kd [16]: 0.782 nM
koff [16]: 6.94e-05 s⁻¹
kon [16]: 88700 M⁻¹ s⁻¹
Kd [17]: 0.323 nM
koff [17]: 1.98e-05 s⁻¹
kon [17]: 61300 M⁻¹ s⁻¹
Kd [18]: 0.613 nM
koff [18]: 6.77e-05 s⁻¹
kon [18]: 110000 M⁻¹ s⁻¹
Kd [19]: 0.713 nM
koff [19]: 6.05e-05 s⁻¹
kon [19]: 84800 M⁻¹ s⁻¹
kon [20]: 71400 M⁻¹ s⁻¹

B5: HaloTag[22-297](M2F + D53G + V177E)-12xGly/Ser-LgBiT-3xGly/Ser-6xHis (other)
chain: B2 chain with M2F, D53G, H145Q, R154P, V177E
notes: as for B3
Kd [2]: 0.669 nM
koff [2]: 4.09e-05 s⁻¹
kon [2]: 61300 M⁻¹ s⁻¹

B6: HaloTag[22-297](M2F + F148M + V177E)-12xGly/Ser-LgBiT-3xGly/Ser-6xHis (other)
chain: B2 chain with M2F, H145Q, F148M, R154P, V177E
notes: as for B3
Kd [2]: 0.509 nM
koff [2]: 2.75e-05 s⁻¹
kon [2]: 54000 M⁻¹ s⁻¹
Kd [11]: 0.485 nM
koff [11]: 2.23e-05 s⁻¹
kon [11]: 46000 M⁻¹ s⁻¹
Kd [21]: 2.4 nM
koff [21]: 0.000628 s⁻¹
kon [21]: 261000 M⁻¹ s⁻¹
Kd [15]: 0.102 nM
koff [15]: 5.03e-06 s⁻¹
kon [15]: 49500 M⁻¹ s⁻¹

B7: LgBiT-6xHis (other)
chain: MVFTLEDFVGDWEQTAAYNLDQVLEQGGVSSLLQNLAVSVTPIQRIVRSGENALKIDIHVIIPYEGLSADQMAQIEEVFKVVYPVDDHHFKVILPYGTLVIDGVTPNMLNYFGRPYEGIAVFDGKKITVTGTLWNGNKIIDERLITPDGSMLFRVTINSHHHHHH
notes: also called LgBiT-6×His; LgBiT alone
kon [5]: 83000 M⁻¹ s⁻¹
Kd [6]: 0.323 nM
koff [6]: 2.4e-05 s⁻¹
kon [6]: 74500 M⁻¹ s⁻¹
kon [8]: 64800 M⁻¹ s⁻¹
Kd [9]: 0.11 nM
koff [9]: 5.86e-06 s⁻¹
kon [9]: 53200 M⁻¹ s⁻¹
Kd [21]: 5.06 nM
koff [21]: 0.000931 s⁻¹
kon [21]: 184000 M⁻¹ s⁻¹
